Data from article doi:10.1101/466938v1.

Assays:
[1] = substrate: Cc1cn([C@H]2C[C@H](O)[C@@H](COP(=O)(O)O)O2)c(=O)[nH]c1=O; assay: NADH-coupled assay; type: biochemical, Homo sapiens; conditions: 500 μM ATP, 100 mM Tris-HCl, 100 mM KCl, 10 mM MgCl2
[2] = substrate: Cc1cn([C@H]2C[C@H](O)[C@@H](COP(=O)(O)O)O2)c(=O)[nH]c1=O; assay: NADH-coupled assay; type: biochemical, Candida albicans; conditions: 500 μM ATP, 100 mM Tris-HCl, 100 mM KCl, 10 mM MgCl2

B1: hTMPK (Homo sapiens) (protein)
chain: MAARRGALIVLEGVDRAGKSTQSRKLVEALCAAGHRAELLRFPERSTEIGKLLSSYLQKKSDVEDHSVHLLFSANRWEQVPLIKEKLSQGVTLVVDRYAFSGVAFTGAKENFSLDWCKQPDVGLPKPDLVLFLQLQLADAAKRGAFGHERYENGAFQERALRCFHQLMKDTTLNWKMVDASKSIEAVHEDIRVLSEDAIRTATEKPLGELWK
In the case of B1, the Km [1] is reported as 16.3 ± 2.3 µM and the kcat [1] is reported as 0.352 ± 0.01 s⁻¹.

B2: CaTMPK (Candida albicans SC5314) (protein)
chain: MARGQLILIEGLDRSGKSTQASILSTKLSPSKLIKFPDRSTPIGKLINEYLTNKSFTLSDQAAHLLFSANRWELSQQIQDLLNQGYFIILDRYIYSGIAYTLAKNDFHDETISQGKNKQQLNNIDWLLSPDKGLPKPDLTLFLTLDLEEISKRKGWGDERYELQQFQAKVKQCFLEILDTNKDPTIRIVDVGGKTIDQVTTQLWEIIETNKNHELINDSIQFIT
B2 was tested, and the Km [2] was 24.1 ± 3.2 µM and the kcat [2] was 5.347 ± 0.118 s⁻¹.
